This is an account of results in patent US7825091B2, “Modification of feeding behaviour” (Imperial Innovations Limited, priority 2003, dated 2010).

For test [1], the system named is fos-like immunoreactivity. Description: Fos-like immunoreactivity (FLI) immunohistochemistry in hypothalamus and brainstem after IP injection. The test is classed as in vivo, rat. The note with it: IP 15 nmol/kg, 90 minutes.
Description: The brains were removed and post-fixed overnight in PBF and then transferred to PB-sucrose (20% w/v) overnight. 40 μm coronal sections of brain and brainstem were cut on a freezing microtome and stained for fos-like immunoreactivity (FLI) by the avitin-biotin-peroxidase method. The sections were then mounted on poly-L-lysine-coated slides, dehydrated in increasing concentrations of ethanol (50-100%), delipidated in xylene and coverslipped using DPX mountant. Slides were examined for FLI-positive nuclei using a light microscope (Nikon Eclipse E-800) and images captured using a microimager (Xillix MicroImager). The numbers of FLI-positive nuclei in the hypothalamus and brainstem were counted by an independent member of the research team who was blinded to the experimental groups. The average number of FLI-positive nuclei per section was calculated and expressed as an integer for each animal.
Test [2] is described as follows: iPVN injection, food intake in 24-h fasted rats (studies 1b, 2b). It counts as in vivo, rat. The procedure: (§1) Animals were handled daily after recovery from surgery until completion of the studies.
(§2) Animals had permanent stainless steel guide cannulas (Plastics One, Roanoke, Va.) stereotactically implanted ICV (intracerebraventricularly) or iPVN (into the hypothalamic paraventricular nucleus).
Therefore, exendin-4 was injected iPVN at a dose of 0.03 nmol.

The target in test [3] is T1, Arcuate nucleus GLP-1 receptors (Rattus norvegicus, UniProt P32301).
T1 construct: 24-hour fasted rats received an iARC injection of saline or exendin9-39 (5 nmoles); from tissue; host or cells: live rat, hypothalamic arcuate nucleus
T1 sequence (P32301 22-463): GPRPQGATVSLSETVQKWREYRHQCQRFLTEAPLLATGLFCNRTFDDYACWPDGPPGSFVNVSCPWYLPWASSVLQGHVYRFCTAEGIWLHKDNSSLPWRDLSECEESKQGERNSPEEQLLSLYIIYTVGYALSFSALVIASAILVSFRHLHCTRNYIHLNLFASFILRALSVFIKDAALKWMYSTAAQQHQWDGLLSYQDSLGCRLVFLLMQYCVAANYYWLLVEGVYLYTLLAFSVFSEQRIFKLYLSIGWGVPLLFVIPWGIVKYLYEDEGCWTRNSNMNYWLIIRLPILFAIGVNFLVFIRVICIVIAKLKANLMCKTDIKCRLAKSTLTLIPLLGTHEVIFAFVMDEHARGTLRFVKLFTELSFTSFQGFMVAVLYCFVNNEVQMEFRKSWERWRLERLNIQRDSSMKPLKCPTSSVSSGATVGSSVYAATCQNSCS
Nature of the test: iARC exendin 9-39 prior to IP OXM or GLP-1, 1 hour food intake. It counts as in vivo. The text has this: Rats cannulated into the arcuate nucleus were randomised into 6 groups (n=10-12 per group). […] The injection details are described in Table 1 below.

The target of another test is T2, GLP-1 receptor (Rattus norvegicus, UniProt P32301).
T2 construct: from tissue; host or cells: rat hypothalamus (membrane preparation)
T2 sequence (P32301 22-463): T1 sequence (P32301 22-463)
Nature of the test: Coadministration of exendin-(9-39) with GLP-1 or OXM, ICV and iPVN, food intake (study 4). It counts as in vivo.

Test [4] is described as follows: ICV injection, food intake in 24-h fasted rats (studies 1a, 2a). The test is classed as in vivo, rat. The note with it: ICV 3 nmol, vs saline.
Description: as §1, §2

No end group written: not given here.

For “CCK: positive control for gastric emptying at the two-hour time-point (DYMGWMDF; ends and bridges not checked; UniProt P06307 96-103, looked up)”, in test [1], the “FLI staining in the brainstem (NTS, area postrema)” value is on record as “caused dense staining of FLI”.

As to exendin-4, the “food intake (refeeding) after iPVN injection” value in test [2] (iPVN 0.03 nmol) is given as “inhibited reseeding”.

In the case of exendin-(9-39), the “effect on anorexia caused by IP administration of OXM” value in test [3] (exendin 9-39 into the ARC, dose printed 300 nmol/kg, IP OXM 30 nmol/kg) is on record as “blocked”. For the same substance, the “Food intake (g), 1 hour” value in test [3] (iARC exendin 9-39 (5 nmoles) or saline 15 minutes prior to IP OXM (30 nmol/kg), GLP-1 (30 nmol/kg) or saline) is reported as 9.0 g. In addition, in test [3] (prior iARC exendin 9-39, IP GLP-1 30 nmol/kg), the “effect on inhibition of food intake by IP GLP-1” value was “not affected”. For the same substance, the “effect of coadministration on anorectic effects of GLP-1” value with GLP-1 receptor (ICV, exendin-(9-39) 30 nmol with GLP-1 3 nmol, ratio 10:1) is “blocked the anorectic effects of GLP-1”. Moreover, the “effect of coadministration on anorectic effect of OXM” value in the test with GLP-1 receptor (ICV, exendin-(9-39) 30 nmol with OXM 3 nmol) is given as “attenuation of the anorectic effect of OXM”. For the same substance, the “effect of coinjection on anorectic effects of GLP-1” value with GLP-1 receptor (iPVN, exendin-(9-39) 10 nmol with GLP-1 1 nmol) is listed as “blocked”. In addition, in the test with GLP-1 receptor (iPVN, exendin-(9-39) 10 nmol with OXM 1 nmol), the “effect of coinjection on anorectic effects of OXM” value is on record as “blocked”.

For glucagon, the “food intake after iPVN injection” value in test [2] (iPVN 1 nmol, any time point) is “failed to affect food intake at any time point”. Also, the “food intake (refeeding) after ICV injection” value in test [4] is listed as “failed to affect food intake at any time point”.
